In the experiment the target is amyloid-β (1–42) (UniProt P05067).

Non-standard residues stand in square brackets, D forms with d. No end group written: not given here.

B1: CDP-1D, D-enantiomeric form of CDP-1 (peptide)
peptide: Ac-[dK][dK][dC][dC][dK][dW][dR][dW][dR][dC][dD][dM][dK]
modifications: not fully specified (C-terminus); cysteine pairing not given here; also: methylated at the C-terminus
Consider B1, for which the ThT fluorescence of Aβ42 aggregation (10 μM Aβ42, 28 μM peptide, 24 h); inhibition of the self-aggregation of Aβ42 was 100%.

Source of the values: article PMC11258689, “A Snake Venom Peptide and Its Derivatives Prevent Aβ42 Aggregation and Eliminate Toxic Aβ42 Aggregates In Vitro” (ACS Chemical Neuroscience, 2024).
